These results are taken from patent US20190161754A1, “FLUORESCENT BIOSENSOR FOR 2', 3'-CGAMP” (The Regents of the University of California, priority 2016, published 2019).

In series [1] the target is T1, cGAS (Homo sapiens, UniProt Q8N884). As to the kind of experiment: Thin-layer chromatography based (radiolabeled TLC) cGAS activity assay with DNA intercalators. Format: biochemical. Also on record: DNA-dependent human cGAS activity was assayed with recombinant full-length cGAS and HT-DNA; implied by Ni-NTA capture and imidazole elution; made in house; host or cells: BL21-RIL DE3 E. coli. The conditions noted are these: 100 μM concentration. Here is the method: Quinacrine intercalation can lengthen the B-form DNA helix but otherwise would not grossly alter conformation (Hossain et al., (2008). DNA intercalation by quinacrine and methylene blue: a comparative binding and thermodynamic characterization study. DNA Cell Biol 27, 81-90). To support the proposed mechanism of action, other DNA intercalators were tested for effects on cGAS activity. The radiolabeled TLC assay was employed in order to avoid possible complications in data interpretation from compounds interacting with the RNA biosensor. […] Importantly, the enzyme-independent effect of compounds on fluorescence of the RNA biosensors can easily be analyzed in control reactions, which allows one to distinguish compounds in the screen that likely interact with the DNA instead of the enzyme directly.
DNA-dependent human cGAS activity was assayed with recombinant full-length cGAS and HT-DNA (Sigma-Aldrich, St Louis, Mo.). cGAS (estimated final concentration 1.5 μM) or equal volumes of water were incubated with HT-DNA (final concentration 0.1 mg/ml) in the presence of 250 μM ATP and GTP and [a-32P] ATP or GTP (˜30 nM) as indicated. All reactions included 100 mM NaCl, 10 mM MgCl2, 40 mM Tris-HCl (pH 7.5), and reactions were incubated at 37° C. for 1.5 hr. Reactions were terminated with the addition of 5 U of alkaline phosphatase (New England Biolabs) and incubation at 37° C. for 30 min. One microliter of each reaction was spotted onto a PEI-Cellulose F thin-layer chromatography plate (EMD Millipore), and reaction products were separated with the use of 1.5 M KH2PO4 (pH 3.8) as solvent. Plates were dried and radiolabeled products were detected with a phosphor screen and the Typhoon phosphorimager (GE Life Sciences).

Another series has as its system Spinach2 aptamer. As to the kind of experiment: Fluorescence of dye-binding Spinach2 aptamer in presence of quinacrine (control). The conditions noted are these: dose-dependent (FIG. 10). An excerpt:
FIG. 10 illustrates dose-dependent loss of fluorescence in presence of QC for both the 2′, 3′-cGAMP biosensor and Spinach2 aptamer.
Quinacrine is a DNA intercalator that may disrupt biosensor function by intercalating into the RNA helices.

The subject of series [2] is cGAS. The conditions noted are these: radiolabeled TLC assay, Gray et al. 2015; cited from earlier work.
In series [3] the target is T1, cGAS. As to the kind of experiment: cGAS inhibition assay read out by RNA-based fluorescent biosensor. The conditions noted are these: decrease of signal independent of enzyme activity, called artefactual, read-out: apparent IC50. Also on record: implied by Ni-NTA capture and imidazole elution; made in house; host or cells: BL21-RIL DE3 E. coli. It counts as biochemical.
Experimental: To initiate the enzyme reaction, 0.5 μL of HT-DNA was added to 2.5 μL of 6× enzyme reaction solution containing cGAS, GTP, ATP and cGAS reaction buffer. Generally, final concentrations are 100m/mL HT-DNA, 1.5 μM cGAS, 200 μM GTP, 200 μM ATP, and cGAS reaction buffer (40 mM Tris-HCl (pH 7.5), 100 mM NaCl, 10 mM MgCl2). The reaction was incubated at 37° C. for 2 hours to allow the enzyme reaction to proceed. […] To initiate the fluorescent biosensor reaction, 3 μL of the enzyme reaction was added to 27 μL of biosensor reaction solution containing renatured RNA, DFHBI (or DFHBI-1T), and biosensor activation buffer. Final concentrations are 200 nM RNA, 10 μM DFHBI (or DFHBI-1T), 40 mM HEPES, pH 7.5, 125 mM KCl, 10 mM MgCl2, and 0.1×cGAS reaction buffer (40 mM Tris-HCl (pH 7.5), 100 mM NaCl, 10 mM MgCl2). […] For the inhibition assay, due to the fluorescence of Quinacrine dihydrochloride, DFHBI-1T was used instead. Samples containing only Quinacrine dihydrochloride of varied concentration in the buffer were used for background fluorescence subtraction.

Series [4] is described as follows: In vitro fluorescence assay of GEMM-II riboswitch-based biosensors with c-di-GMP (binding affinity, turn-on). The conditions noted are these: for fold turn-on: 100 nM RNA, 100 μM c-di-GMP; for Kd: ligand c-di-GMP. The procedure: (§1) In vitro fluorescence assays were carried out in a buffer containing 40 mM HEPES, pH 7.5, 125 mM KCl. Other conditions, including temperature, concentrations of MgCl2, DFHBI (or DFHBI-1T), ligand (or cell extract) and RNA were varied in different experiments and are indicated in the figures. The RNA was renatured in buffer at 70° C. for 3 min and cooled to ambient temperature for 5 min prior to addition to the reaction solution. DFHBI (or DFHBI-1T) was added to a solution containing buffer and ligand, and then RNA was added at the end before fluorescence measurement. Binding reactions were performed either in 100 μL volumes (96-well plate) or 30 μL (384-well plate) and were incubated at the indicated temperature in either a Corning Costar 3915 96-well black plate or Greiner 781077 384-well black plate until equilibrium was reached, which typically takes 30 to 60 minutes. The fluorescence emission was measured using a Molecular Devices SpectraMax Paradigm Multi-Mode detection platform plate reader (Sunnyvale, Calif.) with the following instrument parameters (for DFHBI): 448 nm excitation, 506 nm emission. In case of DFHBI-1T 470 nm excitation and 510 nm emission was used.
(§2) To measure the binding affinities of 2′, 3′-cGAMP biosensors, fluorescence assays were performed with the following conditions: 37° C., 3 mM MgCl2, 200 nM RNA, and 10 μM DFHBI. The 2′, 3′-cGAMP concentration (ccGAMP) was varied, and the fluorescence of the sample with DFHBI but no RNA was subtracted as background to determine relative fluorescence units. The ratio between the fraction of biosensor that is bound by 2′, 3′-cGAMP and the total 2′, 3′-cGAMP biosensor concentration is given as:
(§3) where Fmin is the fluorescence of the sample containing no 2′,3′-cGAMP, while Fmax is the fluorescence of the sample containing highest concentration of 2′,3′-cGAMP (100 μM). The dissociation constants Kd were determined by least squares fitting to the following equation in Graphpad Prism software: […]

Series [5] can be described thus: In vitro fluorescence assay of GEMM-II riboswitch-based biosensors with 3′,3′-cGAMP (binding affinity, turn-on). The conditions noted are these: for fold turn-on: 100 nM RNA, 100 μM 3′,3′-cGAMP; for Kd: ligand 3′,3′-cGAMP. Here is the method: as §1, §2, §3
The nature of series [6]: In vitro fluorescence assay of GEMM-II riboswitch-based biosensors with 2′,3′-cGAMP (binding affinity, turn-on). The conditions noted are these: for fold turn-on / Kd: 200 nM RNA; for fold turn-on: 100 μM 2′,3′-cGAMP; for Kd: ligand 2′,3′-cGAMP, 37° C., 3 mM Mg2+, 10 μM DFHBI, read-out: Kd (apparent dissociation constant). The procedure: as §1, §2, §3
The test system of the next series is E. coli BL21-Star cells. The series can be described thus: In vivo fluorescence assay by flow cytometry, biosensor co-expressed with cyclic dinucleotide synthases (WspR, DncV, cGAS). The conditions noted are these: live E. coli, DFHBI-1T, DncV or cGAS co-expressed. In general terms: Flow cytometry measures light scatter and fluorescence of single cells or particles in a stream.

Starred links: 1 amine or outer side, 2 acyl side, 3 side chain; linkers in the order of their positions; H or OH if unused. Positions of bridges follow the written chain, without caps; N, C: chain ends. Non-standard residues stand in square brackets, D forms with d. Residues, ends and D or L forms follow the SMILES beside them. Chains are numbered I, II in the order given. Actinocin(9to1) = Cc1c2oc3c(C)ccc(C(=O)[*:1])c3nc-2c(C(=O)[*:2])c(N)c1=O; NMeV = CN[C@H](C(=O)O)C(C)C; Sar = CNCC(=O)O

T1 sequence (Q8N884 whole entry): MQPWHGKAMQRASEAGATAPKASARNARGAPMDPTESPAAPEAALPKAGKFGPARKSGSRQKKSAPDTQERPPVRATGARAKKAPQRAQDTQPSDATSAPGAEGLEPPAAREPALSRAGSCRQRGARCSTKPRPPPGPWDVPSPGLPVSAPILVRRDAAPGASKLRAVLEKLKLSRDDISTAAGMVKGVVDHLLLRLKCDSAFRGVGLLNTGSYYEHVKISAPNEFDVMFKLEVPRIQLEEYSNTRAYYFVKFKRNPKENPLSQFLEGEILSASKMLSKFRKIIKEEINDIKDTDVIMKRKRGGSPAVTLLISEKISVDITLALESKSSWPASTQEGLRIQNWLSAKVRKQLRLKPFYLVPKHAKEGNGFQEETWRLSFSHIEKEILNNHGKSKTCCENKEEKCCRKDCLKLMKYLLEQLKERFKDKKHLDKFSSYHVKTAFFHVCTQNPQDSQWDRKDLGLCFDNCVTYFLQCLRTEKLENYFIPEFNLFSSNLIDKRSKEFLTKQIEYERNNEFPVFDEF

For the molecule `CN(C)c1ccc2nc3ccc(=[N+](C)C)cc-3sc2c1` [methylene blue], the “inhibition of cGAS activity” value on cGAS [1] was “no effect”.

By IC50 is commonly meant the midpoint of a concentration-inhibition curve. In the case of `CCN(CC)CCCC(C)Nc1c2ccc(Cl)cc2nc2ccc(OC)cc12` (centres unmarked) [Quinacrine], the “effect on fluorescence of Spinach2 aptamer” value in the series with Spinach2 aptamer is on record as “decreased fluorescence”. Besides, the results for the IC50 in the series with cGAS [2] and at cGAS [3] were 13 µM and 39 ± 7 µM, respectively. At cGAS [1], the “inhibition of cGAS activity” value is “fully inhibited”.

On to `Cc1c2oc3c(C)ccc(C(=O)N[C@@H]4C(=O)N[C@H](C(C)C)C(=O)N5CCC[C@H]5C(=O)N(C)CC(=O)N(C)[C@@H](C(C)C)C(=O)O[C@@H]4C)c3nc-2c(C(=O)N[C@@H]2C(=O)N[C@H](C(C)C)C(=O)N3CCC[C@H]3C(=O)N(C)CC(=O)N(C)[C@@H](C(C)C)C(=O)O[C@@H]2C)c(N)c1=O` [Actinomycin D] (I: T[dV]P[Sar][NMeV] / II: T[dV]P[Sar][NMeV]; ester I:1-I:C, II:1-II:C; linker I:N-II:N via Actinocin(9to1)), for which the “inhibition of cGAS activity” value at cGAS [1] is “partial inhibition”.

B1: Bh P1-6 WT: GEMM-II riboswitch (Bacillus halodurans C-125)-Spinach2 biosensor, 6 base-paired P1 stem, SEQ ID NO: 12 (nucleic acid)
chain: GATGTAACTGAATGAAATGGTGAAGGACGGGTCCAAATAGGGAAGCAACGAAGCATAGCCTTTATATGGACACTTGGGTTATGTGGAGCTACTAGTGTAACCGGCCCTCCTTTTGTTGAGTAGAGTGTGAGCTCCGTAACTAGTTACATC
modifications: synthetic nucleic acid
For B1, the fold turn-on result in series [4] was “(13.1x) fold”; in series [5] it was “(10.8x) fold”. In addition, the “fluorescence activation with c-di-GMP” value in series [4] (FIG. 17, panel B screen) came to 5 fold. Besides, the Kd is 0.056 µM in series [4], over 11 µM in series [5] and over 10 µM in series [5] (listed as wild-type Bh P1-6). In series [6] (20 μM ligand), the “fluorescence response to 2′,3′-cGAMP (in words)” value is reported as “no response”.

B2: Bh P1-6 G103A: Bh P1-6 biosensor with G103A mutation in the binding pocket, SEQ ID NO: 18; G73A in b172, b180 likely the same (nucleic acid)
chain: GATGTAACTGAATGAAATGGTGAAGGACGGGTCCAAATAGGGAAGCAACGAAGCATAGCCTTTATATGGACACTTGGGTTATGTGGAGCTACTAGTGTAACCAGCCCTCCTTTTGTTGAGTAGAGTGTGAGCTCCGTAACTAGTTACATC
modifications: synthetic nucleic acid
notes: G73A, b180 likely the same
Consider B2, for which the fold turn-on entry was “(8.2x) fold” in series [4], “(9.6x) fold” in series [5] and “(10.3) fold” in series [6]. The “reduction of binding affinity to c-di-GMP relative to wild-type Bh P1-6” value in series [4] (G103A versus wild-type) was “more than 125 fold”. Further, the values for the Kd in series [4], in series [5] and in series [6] were over 7.4 µM, 0.8 µM and over 65 µM, respectively. In addition, the “increase of binding affinity to 3′,3′-cGAMP relative to wild-type Bh P1-6” value in series [5] (G103A versus wild-type) is given as “more than 10 fold”. For the same molecule, the “fluorescence activation in response to 2′,3′-cGAMP” value in series [6] (200 nM biosensor, 20 μM ligand) is on record as 5 fold. Further, in the series with E. coli BL21-Star cells, the “cellular fluorescence activation upon co-expression of each enzyme” value is listed as “Significant fluorescence activation”.

B3: Bh P1-5delC: Bh GEMM-II riboswitch fused to Spinach2 via 5 base-paired P1 stem with deletion of a single C, SEQ ID NO: 16 (nucleic acid)
chain: GATGTAACTGAATGAAATGGTGAAGGACGGGTCCAATAGGGAAGCAACGAAGCATAGCCTTTATATGGACACTTGGGTTATGTGGAGCTACTAGTGTAACCGGCCCTCTTTGTTGAGTAGAGTGTGAGCTCCGTAACTAGTTACATC
modifications: synthetic nucleic acid
Molecule B3 returned a Kd in series [4] of 0.021 ± 0.008 µM. For the same molecule, in series [6], the fold turn-on entry was “(5.1x) fold” and the Kd came out at 13.4 ± 0.9 µM.
